The record followed here is the supplement of paper PMC10567573.

To fix the notation:
B1: CPXM2 (parent)
chain: EILGCPLPDPNNYYHRRNEMTTTD
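Also: lentivirally expressed fusions sorted by FACS into six bins by GFP to DsRed ratio, PSI derived from sequencing read proportions per bin multiplied by bin number.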

In the series the parent is B1. As to the kind of experiment: protein stability index of a GFP-peptide fusion (GPS, HEK-293T) (PSI 1-6); higher = more stable. Conditions: c terminus: a fixed tail appended.
With EILGCPLPDPNNDYHRRNEMTTTD, the protein stability index turned out to be 4.43.
The same measure for EILGCPLPDPNNPYHRRNEMTTTD: 4.12; for EILGCPLPDPNNLYHRRNEMTTTD: 3.58.
Regarding EILGCPLPDPNNIYHRRNEMTTTD, the protein stability index came out at 3.92.
The same measure for EILGCPLPDPNNAYHRRNEMTTTD: 4.21.
The same measure for EILGCPLPDPNNWYHRRNEMTTTD: 2.9; for EILGCPLPDPNNNYHRRNEMTTTD: 3.89; for EILGCPLPDPNNVYHRRNEMTTTD: 4.03.
The figure for EILGCPLPDPNNTYHRRNEMTTTD is 4.35; for EILGCPLPDPNNFYHRRNEMTTTD it is 3.35; for EILGCPLPDPNNGYHRRNEMTTTD it is 4.08.
Regarding EILGCPLPDPNNHYHRRNEMTTTD, the protein stability index came to 4.18.
Consider EILGCPLPDPNNKYHRRNEMTTTD, for which the protein stability index came to 4.14.
The figure for EILGCPLPDPNNSYHRRNEMTTTD is 3.86; for EILGCPLPDPNNMYHRRNEMTTTD it is 4.
In the case of EILGCPLPDPNNRYHRRNEMTTTD, the protein stability index amounted to 4.04.
Regarding EILGCPLPDPNNCYHRRNEMTTTD, the protein stability index stood at 3.77.
The same measure for EILGCPLPDPNNQYHRRNEMTTTD: 4.06; for EILGCPLPDPNNEYHRRNEMTTTD: 4.29.
The same measure for EILGCPLPDPFNYYHRRNEMTTTD: 2.96; for EILGCPLPDPGNYYHRRNEMTTTD: 3.15; for EILGCPLPDPINYYHRRNEMTTTD: 2.48.
With EILGCPLPDPLNYYHRRNEMTTTD, the protein stability index amounted to 2.98.
The same measure for EILGCPLPDPWNYYHRRNEMTTTD: 2.29; for EILGCPLPDPYNYYHRRNEMTTTD: 3.13.
The same measure for EILGCPLPDPSNYYHRRNEMTTTD: 3.16; for EILGCPLPDPCNYYHRRNEMTTTD: 2.72; for EILGCPLPDPHNYYHRRNEMTTTD: 3.19.
As to EILGCPLPDPRNYYHRRNEMTTTD, the protein stability index is 3.04.
Consider EILGCPLPDPVNYYHRRNEMTTTD, for which the protein stability index amounted to 3.38.
The same measure for EILGCPLPDPKNYYHRRNEMTTTD: 3.47; for EILGCPLPDPENYYHRRNEMTTTD: 4.07; for EILGCPLPDPANYYHRRNEMTTTD: 3.43.
The same measure for EILGCPLPDPMNYYHRRNEMTTTD: 3.21; for EILGCPLPDPPNYYHRRNEMTTTD: 3.84; for EILGCPLPDPDNYYHRRNEMTTTD: 3.57.
The figure for EILGCPLPDPQNYYHRRNEMTTTD is 3.73.
Take EILGCPLPDPTNYYHRRNEMTTTD: the protein stability index stood at 3.48.
The figure for EILGCPRPDPNNYYHRRNEMTTTD is 3.69.
On to EILGCPHPDPNNYYHRRNEMTTTD, for which the protein stability index was 3.88.
Take EILGCPCPDPNNYYHRRNEMTTTD: the protein stability index stood at 3.83.
The figure for EILGCPNPDPNNYYHRRNEMTTTD is 4.13.
EILGCPQPDPNNYYHRRNEMTTTD: the protein stability index was determined as 3.68.
Turning to EILGCPWPDPNNYYHRRNEMTTTD, the protein stability index turned out to be 3.32.
The same measure for EILGCPKPDPNNYYHRRNEMTTTD: 3.88.
The same measure for EILGCPDPDPNNYYHRRNEMTTTD: 4.04.
The figure for EILGCPGPDPNNYYHRRNEMTTTD is 3.48.
Regarding EILGCPEPDPNNYYHRRNEMTTTD, the protein stability index was determined as 4.08.
The figure for EILGCPSPDPNNYYHRRNEMTTTD is 4.14; for EILGCPYPDPNNYYHRRNEMTTTD it is 3.61; for EILGCPMPDPNNYYHRRNEMTTTD it is 3.59.
The figure for EILGCPFPDPNNYYHRRNEMTTTD is 3.38; for EILGCPVPDPNNYYHRRNEMTTTD it is 3.31; for EILGCPIPDPNNYYHRRNEMTTTD it is 3.79.
The figure for EILGCPLPDTNNYYHRRNEMTTTD is 3.6; for EILGCPLPDANNYYHRRNEMTTTD it is 3.45; for EILGCPLPDENNYYHRRNEMTTTD it is 4.08.
In the case of EILGCPLPDINNYYHRRNEMTTTD, the protein stability index was found to be 3.09.
Regarding EILGCPLPDGNNYYHRRNEMTTTD, the protein stability index is 3.95.
The figure for EILGCPLPDHNNYYHRRNEMTTTD is 3.66; for EILGCPLPDNNNYYHRRNEMTTTD it is 3.37.
The same measure for EILGCPLPDKNNYYHRRNEMTTTD: 3.41; for EILGCPLPDYNNYYHRRNEMTTTD: 2.91.
The same measure for EILGCPLPDWNNYYHRRNEMTTTD: 2.72; for EILGCPLPDDNNYYHRRNEMTTTD: 3.88.
As for EILGCPLPDSNNYYHRRNEMTTTD, the protein stability index was 3.42.
The figure for EILGCPLPDFNNYYHRRNEMTTTD is 3.18; for EILGCPLPDCNNYYHRRNEMTTTD it is 3.26.
The figure for EILGCPLPDQNNYYHRRNEMTTTD is 3.4.
The figure for EILGCPLPDVNNYYHRRNEMTTTD is 3.46; for EILGCPLPDRNNYYHRRNEMTTTD it is 3.49.
In the case of EILGCPLPDMNNYYHRRNEMTTTD, the protein stability index was 3.44.
For the variant EILGCPLPDLNNYYHRRNEMTTTD, the protein stability index was found to be 2.8.
The figure for EILGCPLPDPNNYYHMRNEMTTTD is 3.48; for EILGCPLPDPNNYYHCRNEMTTTD it is 3.15.
The same measure for EILGCPLPDPNNYYHNRNEMTTTD: 3.82; for EILGCPLPDPNNYYHDRNEMTTTD: 3.98; for EILGCPLPDPNNYYHERNEMTTTD: 3.94.
The figure for EILGCPLPDPNNYYHKRNEMTTTD is 3.52; for EILGCPLPDPNNYYHFRNEMTTTD it is 2.71; for EILGCPLPDPNNYYHLRNEMTTTD it is 3.28.
As for EILGCPLPDPNNYYHHRNEMTTTD, the protein stability index stood at 3.56.
The same measure for EILGCPLPDPNNYYHIRNEMTTTD: 3.21; for EILGCPLPDPNNYYHGRNEMTTTD: 4; for EILGCPLPDPNNYYHARNEMTTTD: 3.84.
The figure for EILGCPLADPNNYYHRRNEMTTTD is 2.9.
The figure for EILGCPLIDPNNYYHRRNEMTTTD is 3.14; for EILGCPLGDPNNYYHRRNEMTTTD it is 3.8.
As for EILGCPLEDPNNYYHRRNEMTTTD, the protein stability index was 3.88.
For the variant EILGCPLMDPNNYYHRRNEMTTTD, the protein stability index was 2.47.
Turning to EILGCPLNDPNNYYHRRNEMTTTD, the protein stability index turned out to be 3.31.
As for EILGCPLKDPNNYYHRRNEMTTTD, the protein stability index came to 3.58.
The figure for EILGCPLWDPNNYYHRRNEMTTTD is 2.62; for EILGCPLVDPNNYYHRRNEMTTTD it is 3.01.
